Target: HLA-A*02:01/HPV16 E7 11-19 (…) peptide-MHC complex on target cells (Human Papilloma virus serotype 16 …)
Experiment: cell-based or functional assay

B1: A*02:01/HPV16 E711-19 human TCR (fully human constant regions) expressed on transduced T cells (TCR, V domains shown)
V domain 1: GQNIDQPTEMTATEGAIVQINCTYQTSGFNGLFWYQQHAGEAPTFLSYNVLDGLEEKGRFSSFLSRSKGYSYLLLKELQMKDSASYLCASVDGNNRLAFGKGNQVVVIP
V domain 2: DAGVTQSPTHLIKTRGQQVTLRCSPKSGHDTVSWYQQALGQGPQFIFQYYEEEERQRGNFPDRFSGHQFPNYSSELNVNALLLGDSALYLCASSLGWRGGRYNEQFFGPGTRLTVLE
With B1 the “EC50 of intracellular IFN-γ (ICCS, flow cytometry), CD4+ T cells td with the TCR vector lacking the miRαβ cassette, peptide-loaded T2 target cells” value was ~52.4 nM, the “EC50 of intracellular IFN-γ (ICCS, flow cytometry), CD4+ T cells td with the pMP71-miRαβ A*02:01/HPV16 E711-19 fHC TCR vector, peptide-loaded T2 target cells” value was ~22.3 nM and the “EC50 of intracellular IFN-γ (ICCS, flow cytometry), CD8+ T cells td with the TCR vector lacking the miRαβ cassette, peptide-loaded T2 target cells” value was ~6.4 nM. For the same binder, the “EC50 of intracellular IFN-γ (ICCS, flow cytometry), CD8+ T cells td with the miRαβ TCR vector (SEQ ID NO: 15), peptide-loaded T2 target cells” value was ~3.4 nM.

— patent US20210155941A1 (KITE PHARMA EU B V, published 2021)
